What was measured:
[1] = Acid sensitivity of POD as monitored by thin layer chromatography; assay type: physicochemical; conditions: for degradation of POD (disappearance of the compound spot at Rf~0.4): within one hour
Procedure: Conical polystyrene microcentrifuge tubes (0.5 mL) containing 20 μL 100 mM sodium phosphate buffer of different pH were pre-warmed at 37° C. for 30 min and silica gel TLC plates (WhatmanCE from Whatman Ltd, Maidstoned, Kent, England) were pre-equilibrated with the solvent system (CHCl3/MeOH/NH4OH=100:15:1) by running the plates without samples followed by brief air-drying. Eight milligrams of POD was dissolved into 100 μL water by vortexing and 20 μL of the solution was added into each of the pre-warmed tubes and mixed thoroughly. The tubes were incubated at 37° C. and 10 μL of the solutions were aliquoted at different time points and mixed with 10 μL of 10% concentrated NH4OH (30% w/w) in acetone to stop the hydrolysis. Five microliters of the mixture was spotted onto pre-equilibrated TLC plates. Three microliters of distearoyl glycerol, monomethyl ether of PEG2000 and POD in 10 mg1 mL CHCl3 solution were also spotted as standards. TLC plates were developed, heated at 150° C. for 5 min and stained in I2 chamber for 1 h to observe the locations of POD and its degradation products.

[2] = Critical Micelle Concentration of POD dispersion; assay type: physicochemical; conditions: 150 mM Tris/CL buffer pH 9.0
Procedure: In one example 10 μmoles of methoxypolyethylene glycol 2000-diortho ester-distearoyl glycerol conjugate was dried from a chloroform solution unto the sides of a glass vessel. […] Under these conditions the POD has a Critical Micelle Concentration (CMC) of about 10 μM and micelles will be formed. An aliquot of 0.05 mL of the POD micelles is added to 1 mL of a 10 mM (total lipid) liposome suspension consisting of DSPC:Chol in the mole ratio of 55:40 in a 0.14 M NaCl-10 mM Tris, pH 8.0 buffer. The mixture is incubated at 37° C. for 2 hours. After this time the POD is incorporated into the liposome and the liposome can be injected into an animal.

Substance: 3,9-Diethyl-3-(2,3-distearoyloxypropyloxy)-9-(methoxypolyethyleneglycol2000-1-yl)-2,4,8,10-tetraoxaspiro[5,5]undecane [POD]
- degradation of POD ([1]; buffer of neutral pH 7.4, 37° C., over 3 hours): most of the conjugate remained intact
- approximate half-life of POD degradation ([1]; buffer of pH 6, 37° C.): ~2.5 h
- degradation of POD (disappearance of the compound spot at Rf~0.4) ([1]; buffer pH 4, 37° C.): completely degraded
- degradation of POD (disappearance of the compound spot at Rf~0.4) ([1]; buffer pH 5, 37° C.): completely degraded
- Critical Micelle Concentration (CMC) [2]: about 10 μM

— patent publication US6897196B1, “pH sensitive lipids based on ortho ester linkers, composition and method” (The Regents of the University of California, priority 2001, dated 2005)
